Sequences and labels used below:
B1: VHH2 (VHH)
VHH: QVQLVESGGGSVQPGGSLRLSCAASGSIVGHAVQAWYRQAPGKQRDLVAQLFDNGKTNIADSVKGRFTISGDNAKNTFYLQMNNLKPEDTAIYYCAILILPSMGVPPNIYEGQGTQVTVSS
B2: VHH22 (VHH)
VHH: EVQLVESGGGLVQAGGSLKLSCAASGRTFSGNTMGWFRQAPGKERELVTVVSSGGSTYYSDSVKGRFTISRDNALNTVYLQMNSLKPEDTAVYYCAAASLISGLTTTRRLFDYWGQGTQVTVSS
B3: VHH10 (VHH)
VHH: EVQLVESGGGLVQAGDSLRLSCAASGRAFSGYAMAWFRQAPEKEREFVAAITWRGGTPYYAVRAKGRFTISRDSAKNTAYLEVNSLKPEDTATYYCAAPSLQVATMDVKDYAYWGQGTLVTVSS
B4: VHH19 (VHH)
VHH: EVQLVESGGGSVQAGASLRLSCAASGFPFSHYAIGWFRQAPGKEREFVTSIDRSGINTYYADSVKGRFTISRDNAKNAVSLQMNSLKPDDTAVYYCAAGPRLVTSPELYPYWGQGTQVTVSS
B5: VHH21 (VHH)
VHH: EVQLVESGGGLVQTGGSLRLSCAASGRTFDSYFMGWFRQAPGKEREFVAAISGSGSLTSYEDGVKGRFTISRDNAKNTVSLQMTNLKPEDTAVYYCASCLSCAFINGRQVDSRYYNYWGQGTQVTVSS
B6: VHH17 (VHH)
VHH: EVQLVESGGGLVQAGGSLRLSCAASGRTFSAYAMGWFRQAPGKERELVAGISWSGGMTYYADSVKGRFTISRDNAKNMVYLQMNSLKAEDTAVYYCAGGFSAVVPDHPDEYHYWGQGTQVTVSS
B7: VHH16 (VHH)
VHH: QVQLVESGGGWVQTGGSLRLSCAASGSTFDIKRMAWYRQAPGKEREFVADIWSEGSTHYADSVKGRFTISRDSAKNTMYLQMNSLKPEDTAAYYCNVGNTWGQGTQVTVSS
B8: VHH20 (VHH)
VHH: EVQLVESGGGSVQAGGSLRLSCVASGIAFSESPMAWYRQAPGRQREFVADVSADNKPYYRDTLKGRFTISRDNDKNSVYLQMNFLQPEDTAVYYCNALLLEAGTIKNYWGQGTQVTVSS
B9: VHH13 (VHH)
VHH: EVQLVESGGGLVQPGGSLRLSCAASGSTFSINAMGWYRQAPGKQRELVAAISSGGSTNYADSVKGRFTISRDNAKNTVYLQMNSLKPEDTAVYYCNTINIGTFISLGGSPLGSWGQGTQVTVSS
B10: VHH18 (VHH)
VHH: EVQLVESGGGWVQTGGSLRLSCAASGSTFDIKRMAWYRQAPGKEREFVADIWSEGSTHYADSVKGRFTISRDSAKNTMYLYMNSLKPEDTAVYYCNVEYVLRTYWGQGTQVTVSS
B11: VHH14 (VHH)
VHH: EVQLVESGGGLVQAGDSLRLSCTASARTFIKYAMGWFRQAPGKEREFVAAISWSGSRTTYADSVKGRFTISRDNDKNTVYLQMNTLEPEDTAIYYCAKAKGGYHSSQYDYDYWGQGTQVTVSS

Sequence of PD-L1-Fc fusion protein (Invitrogen) (Q9NZQ7 19-238): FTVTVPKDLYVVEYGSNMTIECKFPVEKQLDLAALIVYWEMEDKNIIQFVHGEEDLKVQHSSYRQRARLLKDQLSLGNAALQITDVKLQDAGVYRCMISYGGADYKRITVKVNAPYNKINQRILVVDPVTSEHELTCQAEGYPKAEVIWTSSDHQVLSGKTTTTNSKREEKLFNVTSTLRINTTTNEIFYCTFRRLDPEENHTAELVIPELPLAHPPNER

This assay concerns the target PD-L1-Fc fusion protein (Invitrogen) (human, UniProt Q9NZQ7 19-238). Description: BLI.
Usually Kd stands for a measure of binding affinity in units of concentration. Higher therefore signals lower affinity. For the molecule B1, the dissociation constant (Kd) amounted to 2.2 µM.

In the case of B2, binding was characterised by a dissociation constant (Kd) of 2.7 µM.

On to B3, for which the Kd was 0.19 µM.

In turn, B4 returned a Kd of 1.6 µM.

Turning to B5, the Kd is 5.1 µM.

The molecule B6 gave a Kd of 0.33 µM.

B7 returned a Kd of 0.18 µM. This Kd is about 1.8-fold lower than that of the molecule before.

B8 had a Kd of 0.34 µM.

On to B9, for which the affinity, expressed as Kd, was 1.3 µM. Compared with the last molecule, the Kd is about 3.8-fold higher.

On to B10, for which binding was put at a Kd of 0.72 µM.

For the molecule B11, the Kd worked out at 0.29 µM. Against the preceding molecule, the Kd is about 2.5-fold lower.
